# According to patent publication US20260226187A1:
# Experiments:
# [1] = target: FcγRIIb/c (CD32b/c) (human) (UniProt P31994); test: SPR, His-captured FcγRIIb/c, antibody analyte, steady state model, HBS-EP+
# [2] = target: FcγRIIIa F158 (CD16a) (human) (UniProt P08637); test: SPR, His-captured FcγRIIIa F158, antibody analyte, steady state model, HBS-EP+ (FIG. 31)
# FcRn (human) = FcRn (human) (UniProt P55899); test: SPR, antibody immobilised, FcRn analyte, steady state model, pH 6.0
# FcγRIIIb (CD16b) (human) = FcγRIIIb (CD16b) (human) (UniProt O75015); test: SPR, His-captured FcγRIIIb (CD16b), antibody analyte, steady state model, HBS-EP+ (legend of FIG. 32; receptor printed as FcγRIIIa)
# FcγRIIIb (CD16b) (human), sequence (O75015 17-200 limits assumed): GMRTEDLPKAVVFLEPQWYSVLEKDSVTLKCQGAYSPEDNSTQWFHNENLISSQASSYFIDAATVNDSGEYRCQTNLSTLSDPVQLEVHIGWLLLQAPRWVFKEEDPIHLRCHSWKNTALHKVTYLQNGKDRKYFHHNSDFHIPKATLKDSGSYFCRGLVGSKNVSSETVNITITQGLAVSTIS
# FcγRI (CD64) (human) = FcγRI (CD64) (human) (UniProt P12314); test: SPR, His-captured FcγRI, antibody analyte, 1:1 model, PBST pH 7.4
# FcγRI (CD64) (human), sequence (P12314 16-292): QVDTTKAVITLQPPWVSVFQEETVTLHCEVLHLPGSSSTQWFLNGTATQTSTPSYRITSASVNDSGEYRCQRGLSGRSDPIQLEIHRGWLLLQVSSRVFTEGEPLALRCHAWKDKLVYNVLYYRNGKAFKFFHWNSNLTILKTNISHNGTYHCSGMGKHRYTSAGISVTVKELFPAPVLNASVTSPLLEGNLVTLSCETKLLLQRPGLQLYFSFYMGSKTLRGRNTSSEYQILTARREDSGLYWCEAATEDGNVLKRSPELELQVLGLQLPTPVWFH
# [3] = target: Cynomolgus EpCAM expressed on CHO cells (cynomolgus monkey); test: flow cytometry of CHO-cynoEpCAM cells stained with PE anti-hEpCAM clone 9C4, quantified with the QuantiBrite PE bead standard curve
# Cynomolgus EpCAM expressed on CHO cells (cynomolgus monkey), sequence (Q1WER1 24-314): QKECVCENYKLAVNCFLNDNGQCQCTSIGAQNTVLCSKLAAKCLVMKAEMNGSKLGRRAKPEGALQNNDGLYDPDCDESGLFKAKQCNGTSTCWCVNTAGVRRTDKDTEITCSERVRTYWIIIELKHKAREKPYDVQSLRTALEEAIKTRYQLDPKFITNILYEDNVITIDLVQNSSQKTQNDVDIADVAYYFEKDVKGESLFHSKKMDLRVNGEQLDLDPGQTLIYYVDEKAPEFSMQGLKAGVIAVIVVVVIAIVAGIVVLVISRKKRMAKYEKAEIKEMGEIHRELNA
# [4] = target: Human EpCAM expressed on cells (CHO-hEpCAM, HCT116) (human) (UniProt P16422); test: flow cytometry of HCT116 cells stained with PE anti-hEpCAM clone 9C4, quantified with the QuantiBrite PE bead standard curve
# Human EpCAM expressed on cells (CHO-hEpCAM, HCT116) (human), sequence (P16422 24-314): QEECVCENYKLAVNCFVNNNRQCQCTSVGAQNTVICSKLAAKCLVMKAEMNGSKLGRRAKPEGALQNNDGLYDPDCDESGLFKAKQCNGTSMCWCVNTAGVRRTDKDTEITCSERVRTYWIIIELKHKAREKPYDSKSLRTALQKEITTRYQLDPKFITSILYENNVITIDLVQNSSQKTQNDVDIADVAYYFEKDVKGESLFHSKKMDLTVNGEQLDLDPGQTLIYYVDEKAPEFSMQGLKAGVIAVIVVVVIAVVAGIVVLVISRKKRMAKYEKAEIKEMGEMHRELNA
# [5] = target: Human EpCAM expressed on cells (CHO-hEpCAM, HCT116) (human) (UniProt P16422); test: flow cytometry of CHO-hEpCAM cells stained with PE anti-hEpCAM clone 9C4, quantified with the QuantiBrite PE bead standard curve
# FcRn (human), sequence (P55899 24-297 limits assumed, chain 1 of 2): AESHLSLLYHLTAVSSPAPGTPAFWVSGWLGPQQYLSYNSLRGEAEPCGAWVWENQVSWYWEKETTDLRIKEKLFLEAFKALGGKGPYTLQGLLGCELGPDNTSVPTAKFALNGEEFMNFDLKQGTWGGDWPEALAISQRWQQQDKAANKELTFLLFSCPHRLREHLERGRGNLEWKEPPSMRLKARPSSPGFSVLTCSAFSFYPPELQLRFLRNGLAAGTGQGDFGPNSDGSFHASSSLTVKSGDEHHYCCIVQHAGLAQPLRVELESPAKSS
# FcRn (human), sequence (chain, as listed by the source limits assumed, chain 2 of 2): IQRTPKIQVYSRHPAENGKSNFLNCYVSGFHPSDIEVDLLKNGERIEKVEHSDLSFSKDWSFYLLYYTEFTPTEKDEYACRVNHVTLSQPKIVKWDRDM
# FcγRIIIa F158 (CD16a) (human), sequence (P08637 17-208): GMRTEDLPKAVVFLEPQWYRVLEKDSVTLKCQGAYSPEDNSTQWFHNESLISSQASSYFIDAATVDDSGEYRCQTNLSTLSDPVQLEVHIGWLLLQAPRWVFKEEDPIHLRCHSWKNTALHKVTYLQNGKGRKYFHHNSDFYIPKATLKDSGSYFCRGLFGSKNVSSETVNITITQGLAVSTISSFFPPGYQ
# FcγRIIb/c (CD32b/c) (human), sequence (P31994 43-217): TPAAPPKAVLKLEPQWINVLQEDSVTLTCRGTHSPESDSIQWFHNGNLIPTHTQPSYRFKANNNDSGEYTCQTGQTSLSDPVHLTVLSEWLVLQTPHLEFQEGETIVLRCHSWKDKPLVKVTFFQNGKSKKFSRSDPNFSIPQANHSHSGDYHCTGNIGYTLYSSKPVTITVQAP
Substance,Kd [1] [nM],Kd [2] [nM],Kd (FcRn (human)) [nM],Kd (FcγRIIIb (CD16b) (human)) [nM],Kd (FcγRI (CD64) (human)) [nM],Antibody per cell (Antibody per cell) [3],Antibody per cell (Antibody per cell) [4],Antibody per cell (Antibody per cell) [5]
IgG1-ctrl mAb (antibody),4200,860,366,6500,1.18,,,
"Mouse anti-hEpCAM conjugated to PE, clone 9C4 (antibody)",,,,,,231000,412000,194000
